# In article PMC2104711 (The EMBO Journal, 2007):
# Molecular target: human XLF/Cernunnos (1–233), tag-free (cleaved XLF441) (human, UniProt Q9H9Q4 1-233)
# Assay: SPR
# human XLF/Cernunnos (1–233), tag-free (cleaved XLF441), sequence (Q9H9Q4 1-233): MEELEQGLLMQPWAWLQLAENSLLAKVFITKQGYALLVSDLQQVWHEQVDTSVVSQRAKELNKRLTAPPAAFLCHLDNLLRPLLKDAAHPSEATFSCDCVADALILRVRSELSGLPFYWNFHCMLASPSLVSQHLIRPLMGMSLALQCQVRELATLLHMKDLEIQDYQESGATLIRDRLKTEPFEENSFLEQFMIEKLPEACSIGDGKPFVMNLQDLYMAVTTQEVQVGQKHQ
binder,measurement,value
"XRCC4 (1–213) with N-terminal His6 tag (domain or fragment, UniProt Q13426 1-213, looked up) MERKISRIHLVSEPSITHFLQVSWEKTLESGFVITLTDGHSAWTGTVSESEISQEADDMAMEKGKYVGELRKALLSGAGPADVYTFNFSKESCYFFFEKNLKDVSFRLGSFNLEKVENPAEVIRELICYCLDTIAENQAKNEHLQKENERLLRDWNDVQGRFEKCVSAKEALETDLYKRFILVLNEKKTKIRSLHNKLLNAAQEREKDIKQEG",Kd,7.8 µM
